Results taken from patent publication US5863889A, “ICAM-1/LFA-1 short-chain peptides and method of using same” (The University of Kansas, priority 1996, dated 1999).
“Also recorded” adds a separate entry of the source.

Assays:
ICAM-1 = target: T1, ICAM-1 (Homo sapiens, UniProt P05362); test: Conformation modulator assay: flow cytometry of FITC-labeled RB-1-88 binding to T-cells after pre-incubation with first peptide; assay type: cell-based; conditions: first peptide 4550 μM
T1 construct: host or cells: Molt3 human T-cell leukemia line
Procedure: The antibody binding assay of Example 2 was twice repeated at a peptide concentration of 4550 μM, each time substituting a 455 nmol quantity of synthetic peptide selected from the group consisting of ICAM-based peptide SC-3-111 (Sequence ID No. 10) and LFA-based peptide LJCRF-4 (Sequence ID No. 16) in respective assays. Following incubation for 30 minutes at 37° C. after introduction of the first peptides, both incubated culture were supplemented by an additional quantity of FITC-labeled RB-1-88 (Sequence ID No. 19) peptide in a quantity sufficient to provide a 1.90 μM concentration in the cell/PBS solution.
Following addition of the RB-1-88 (Sequence ID No. 19) peptide, the mixture was incubated for 30 minutes at 4° C., washed three times with 500 μl PBS/BSA, resuspended in 500 μl PBS/BSA and immediately subjected to a flow cytometer analysis as before. Table 3 presents the results of this analysis, which are also depicted in FIGS. 8 (SC-3-111) and 9 (LJCRF-4).

LFA-1 (CD11a) = target: T2, LFA-1 (CD11a) (Homo sapiens, UniProt P20701); test: Antibody binding assay (FACS): anti-LFA-1 mAb (mouse IgG anti-human CD11a) binding to Molt3 T-cells after peptide incubation; assay type: cell-based; conditions: for Fluorescence, % change from control of the medium fluorescence intensity: mAb CD11a, average ± standard error of runs
T2 construct: host or cells: Molt3 human T-cell leukemia line
Procedure: A 1 ml quantity of the Molt3 inoculum was warmed to 37° C. and transferred by pipette into about 25 ml of a growth culture medium including RPMI 1640 lymphocyte growth medium (Fisher Scientific of St. Louis, Miss.) mixed with 10% by volume fetal calf serum, 100 units/ml penicillin, 100 μg/ml streptomycin and 2 mM glutamine. The inoculated culture was incubated for three to four days at 37° C. under a normal atmosphere having about 5% CO2 added thereto. This culture was capable of being maintained indefinitely by siphoning away the top (non-cell containing) layer and adding 50 ml (or more) of growth culture medium at intervals of three to four days.
An aqueous buffer solution including Dulbecco's phosphate buffered saline and bovine serum albumin ("-PBS/BSA solution") was prepared for use, and included a mixture of 200 mg KH2 PO4, 1.15 g Na2 HPO4, 100 mg CaCl2, 200 mg KCl, 100 mg MgCl2.6H2 O, 8 g NaCl, with distilled water added to a final 1 liter volume at room temperature, thus, forming a "PBS" solution of pH 7.4 to which was added 0.5% by weight bovine serum albumin.
An aliquot of about 7 ml was removed from the incubated culture medium and subjected to washing with the PBS/BSA solution. The washing procedure was initiated by placing the aliquot in a centrifuge (Model GT422 from Jouan, distributed Piruscio & Assoc. of Manchester, Miss.) at 1400 rpm for 6.5 minutes to separate the cells from the growth medium. The supernatant fluid was decanted, a 5 ml portion of PBS/BSA solution was transferred by pipette into the pellet, and the mixture was again centrifuged as before. The resulting supernatant fluid was decanted and the cells from the pellet were resuspended in PBS/BSA solution at a titer of about 1×10^6 cells/ml. A 500 μl portion of the solution containing the resuspended cells was placed in a microcentrifuge (Marathon 13K/M from Fisher Scientific of St. Louis, Miss.) at 3500 rpm for six minutes, to provide a washed pellet.
[…] The cells were incubated with the peptide cocktail at 37° C. for 45 minutes.
After incubation with the peptide cocktail, several antibodies were successively mixed into the incubated solution. A 75 μl portion of anti-IgM solution (a mixture of 10 μl of goat anti-human IgM stock purchased from Jackson Immuno Research of Westgrove, Pa.; and 65 μl of PBS/BSA solution) was added to the peptide cocktail for blocking of nonspecific binding of the secondary antibody. The resulting mixture was incubated for 10 minutes on ice. About 0.1 μg of a primary antibody including mouse IgG anti-human CD11a (purified according to conventional protocols at the University of Kansas Department of Pharmacology and Toxicology from an American Type Culture hybridoma cell line having Catalogue Number HB-202) was next stirred into the mixture, which was then incubated for 30 minutes at room temperature. The incubated mixture was placed in a microcentrifuge at 3500 rpm for six minutes to remove the cells from the mixture, and the cell pellet was washed two times by adding 500 μl aliquots of PBS/BSA solution and microfuging to remove non-bound antibodies from the cells as before. The resulting washed pellet was resuspended in 100 μl of a secondary antibody cocktail including 5 μl of fluorescein isothiocyanate ("FITC") labeled goat anti-mouse IgG (from CALTAG of South San Francisco, Calif.) and 95 μl of PBS/BSA solution. The resulting solution was incubated for 30 minutes at room temperature in the dark.
The incubated solution including the secondary antibody cocktail was microfuged at 3500 rpm for six minutes to remove the cells from the solution, and the cell pellet was washed two times with 500 μl portions of PBS/BSA solution, as before, to remove unbound antibodies. […]

T1 sequence (P05362 28-532): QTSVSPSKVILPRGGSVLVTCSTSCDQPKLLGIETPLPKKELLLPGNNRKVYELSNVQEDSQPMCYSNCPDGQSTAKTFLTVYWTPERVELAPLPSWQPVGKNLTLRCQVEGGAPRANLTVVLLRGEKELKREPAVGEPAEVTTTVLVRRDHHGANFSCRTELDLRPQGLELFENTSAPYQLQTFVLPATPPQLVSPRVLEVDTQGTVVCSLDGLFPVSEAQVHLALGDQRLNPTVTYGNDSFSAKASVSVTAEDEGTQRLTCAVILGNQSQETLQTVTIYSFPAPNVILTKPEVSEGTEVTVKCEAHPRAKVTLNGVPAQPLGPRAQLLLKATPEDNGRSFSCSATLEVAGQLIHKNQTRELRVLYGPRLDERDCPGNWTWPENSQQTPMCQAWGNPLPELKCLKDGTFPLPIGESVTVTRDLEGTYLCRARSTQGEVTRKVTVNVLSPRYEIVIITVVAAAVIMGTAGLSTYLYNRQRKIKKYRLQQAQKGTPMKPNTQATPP
T2 sequence (P20701 26-1170): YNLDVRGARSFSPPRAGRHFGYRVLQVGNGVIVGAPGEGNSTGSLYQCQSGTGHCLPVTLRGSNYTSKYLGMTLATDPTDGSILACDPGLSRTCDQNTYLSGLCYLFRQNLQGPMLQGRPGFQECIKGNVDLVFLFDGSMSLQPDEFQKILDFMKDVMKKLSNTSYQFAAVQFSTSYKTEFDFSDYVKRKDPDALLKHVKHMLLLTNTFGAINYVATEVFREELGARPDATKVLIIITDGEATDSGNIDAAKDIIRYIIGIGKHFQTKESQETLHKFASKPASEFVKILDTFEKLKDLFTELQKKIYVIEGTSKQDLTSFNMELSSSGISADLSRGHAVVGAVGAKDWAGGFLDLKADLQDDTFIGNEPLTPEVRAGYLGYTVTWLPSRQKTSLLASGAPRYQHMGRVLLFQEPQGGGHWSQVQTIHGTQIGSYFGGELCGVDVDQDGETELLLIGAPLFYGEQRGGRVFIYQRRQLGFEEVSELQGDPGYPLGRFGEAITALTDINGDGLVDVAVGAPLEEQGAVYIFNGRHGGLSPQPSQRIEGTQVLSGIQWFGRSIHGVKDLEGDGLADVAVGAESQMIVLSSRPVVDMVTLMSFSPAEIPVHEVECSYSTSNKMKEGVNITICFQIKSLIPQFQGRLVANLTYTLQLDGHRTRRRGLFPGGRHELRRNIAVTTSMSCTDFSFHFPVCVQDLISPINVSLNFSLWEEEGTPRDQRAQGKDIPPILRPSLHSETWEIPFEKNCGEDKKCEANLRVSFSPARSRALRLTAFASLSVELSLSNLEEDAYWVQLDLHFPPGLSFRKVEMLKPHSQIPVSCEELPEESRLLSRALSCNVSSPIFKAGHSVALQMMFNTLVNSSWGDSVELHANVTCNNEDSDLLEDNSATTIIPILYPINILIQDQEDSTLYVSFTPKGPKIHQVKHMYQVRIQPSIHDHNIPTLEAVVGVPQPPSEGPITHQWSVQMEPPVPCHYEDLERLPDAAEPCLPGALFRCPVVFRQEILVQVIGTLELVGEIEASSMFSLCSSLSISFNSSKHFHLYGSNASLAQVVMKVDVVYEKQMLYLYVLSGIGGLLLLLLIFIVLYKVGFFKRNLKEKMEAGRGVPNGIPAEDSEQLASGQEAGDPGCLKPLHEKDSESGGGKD
T2 sequence (P05107 23-769 partner): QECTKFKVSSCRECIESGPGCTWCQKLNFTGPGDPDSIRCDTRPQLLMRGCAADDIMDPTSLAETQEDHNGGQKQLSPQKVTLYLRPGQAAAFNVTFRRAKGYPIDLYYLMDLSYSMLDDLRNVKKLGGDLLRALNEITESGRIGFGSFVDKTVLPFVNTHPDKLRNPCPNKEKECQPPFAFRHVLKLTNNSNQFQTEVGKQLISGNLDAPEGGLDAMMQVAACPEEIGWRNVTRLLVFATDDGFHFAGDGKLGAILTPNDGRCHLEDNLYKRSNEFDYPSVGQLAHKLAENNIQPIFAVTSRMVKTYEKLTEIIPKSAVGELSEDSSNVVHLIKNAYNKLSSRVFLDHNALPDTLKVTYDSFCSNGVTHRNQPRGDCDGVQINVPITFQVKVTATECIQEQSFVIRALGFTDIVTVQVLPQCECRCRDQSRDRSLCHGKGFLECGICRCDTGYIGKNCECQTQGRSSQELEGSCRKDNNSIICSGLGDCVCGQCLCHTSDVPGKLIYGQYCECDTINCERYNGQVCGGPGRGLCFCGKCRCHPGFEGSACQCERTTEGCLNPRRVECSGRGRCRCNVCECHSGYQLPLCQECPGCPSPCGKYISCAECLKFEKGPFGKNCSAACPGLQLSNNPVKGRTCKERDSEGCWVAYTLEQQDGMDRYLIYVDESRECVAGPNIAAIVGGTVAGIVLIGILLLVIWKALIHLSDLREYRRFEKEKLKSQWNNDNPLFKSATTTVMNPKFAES

**Q.** Which “FACS Analysis (RB-1-88 binding)” value (ICAM-1; then FITC-labeled RB-1-88 1.90 μM, shift vs control) does the source give for “SC-3-111: ICAM-1 based short-chain peptide, Sequence ID No. 10 (QTSVSPSKVI)” here?
**A.** The value was -8%.

**Q.** What about the “negative blocking shift of RB-1-88 binding (FIG. 8)” value (ICAM-1; then RB-1-88 1.90 μM, called probably not significant) of the same substance?
**A.** The value was 8%.

**Q.** What about the “effect on binding of labeled peptide (RB-1-88 / LJCRF-6) to T-cell ICAM-1” value (ICAM-1; FIGS. 8, 9) of the same substance?
**A.** The value was “substantially no T-cell binding enhancement; also recorded: no effect”.

**Q.** What about the “Fluorescence, % change from control of the medium fluorescence intensity” value (LFA-1 (CD11a); peptide 2275 μM) of the same substance?
**A.** Its value is -12 ± 4%.

**Q.** What about the “Fluorescence, % change from control of the medium fluorescence intensity” value (LFA-1 (CD11a); peptide 4550 μM, negative = blocking) of the same substance?
**A.** The value was -29 ± 2%.

**Q.** What about the blocking efficiency (LFA-1 (CD11a); single above-average run (FIGS. 2, 3), peptide 4550 μM, anti-CD11a) of the same substance?
**A.** The blocking efficiency was 51%.

**Q.** What about the “sample median peak fluorescence intensity value” (LFA-1 (CD11a); single run of FIG. 2 (control 264.41), anti-CD11a) of the same substance?
**A.** Its value is 128.74.

**Q.** What about the “% change of median peak vs control” value (LFA-1 (CD11a); single run of FIG. 2, peptide 4550 μM, anti-CD11a) of the same substance?
**A.** The value was -51%.
